These results are taken from the DeepSol protein solubility set.

The data set is described as follows: soluble on expression in E. coli; label from the status in PepcDB or PDB records.
Turning to “MNRIKEVLEEKGIKQTWLAEKLGKSFSIVNSYVCNRRQPSLDILFEIAKILEVDVRVLIGTKENRQKSK”, the “soluble on expression in E. coli” value is reported as “not soluble”.
In the case of “MNRILLYVHFNKYNKISAHVYYQLEQMRSLFSKIVFISNSKVSHEDLKRLKNHCLIDEFLQRKNKGFDFSAWHDGLITMGFDKLEEFDSLTIMNDTCFGPIWEMAPYFENFEEKKAVDFWGITNNRGTKAFKEHVQSYFMTFKNQVIQNKVFQQFWQSIIEYENVQEVIQHYETQLTSILLNEGFSYQTVFDTRKAESSFMPHPDFSYYNPTAILKHHVPFIKVKAIDANQHIAPYLLNLIRETTNYPIDLIVSHMSQISLPDAKYLLSQKYLNCQRLAKQTCQKVAVHLHVFYVDLLDEFLTAFEDWNFHYDLFITTDSDIKRKEIKEILQRKGKTADIRVTGNRGRDIYPMLLLKDKLSQYDYIGHFHTKKSKEADFWAGESWRKELIDMLVKPADSILSAFETDDIGIIIADIPSFFRFNKIVNAWNEHLIAQEMMSLWRKMDVKKQIDFQAMDTFVMSYGTFVWFKYDALKSLFDLELTQNDIPSEPLPQNSILHAIERLLVYIAWGNSYDFRILEHHHHHH” it was “not soluble”; in that of “MNRLQGMELFVEVARTLSFGRAAENLAIPKSTLSRQVAELERSVGLRLLSRTTRRVELTEAGQLYFERCQRIVAEARIAHEELQNLVETPSGPLRVNMPADFGTDFLSEAFTEFSRRYPEVTFYLDLASPEHAERVFQTCDVSIEIGDLPDSTHIARLLGVLPAHLYASPDYLARHGEPQHPDDLPRHECIQFRAGTGRVTRWPLNSGERHVEITPGNRFSVNSVSMVRNLATLGAGIAILAPMGNVREDIESGRLKRILPDWLAGPFPVYAVTDTRMLPAKTRIFVEFLMERLSNKTLAGQNNPAFLNLR”, “not soluble”.
For “MNRLSIFVDGNNMFYAQQKNGWFFDPRRVLEYFKHEQSETTLINAFWYTGLKDPQDQRGFRDALISLGYTVRTKILKEYYDDTSGRYSQKANLDIEIVVDMFNTVDQYDRVVLFSGDGDFERAIELLRSKNTHITVVSTEGMIARELRNATDRYIDLNDIRDQIEKT”, the “soluble on expression in E. coli” value is recorded as “not soluble”.
As to “MNRNKWQRVPAPNTRGAKMHGWVREMDEAYREVNGEYAVLVRTLNTKLGTVKHAAIRNATETDITWSEKQRIKNEIFGEEKQAIEFFPKQSELIDEANMYHLWILEDCELEFGIYE”, the “soluble on expression in E. coli” value is “not soluble”.
For the sequence “MNRREVRCAFSASKAARAQLLLRGKVRLEPLPTRPRTVLGLDASYSAKDGVGVGAAVLISLETLEPVDCRVYISRVCIPYIPGLLAFRELAVMAPAAAALSAEADVVMVDGHGIAHPRRFGIASHVGVILERPSIGVAKKKLVGTLVEGPGGMYVVQDGERLAIVLGTRPREVYVSPGHRITLEEAASIARATIRPGGWMPEPTRLADVISKALKTIIGGQSLINSALASLCRVKLGPRLEELERPLRRAGLEVELEHHHHHH”, the “soluble on expression in E. coli” value is listed as “not soluble”.
In the case of “MNRTAMRASQKDFENSMNQVKLLKKDPGNEVKLKLYALYKQATEGPCNMPKPGVFDLINKAKWDAWNALGSLPKEAARQNYVDLVSSLSPSLESSSQVEPGTDRKSTGFETLVVTSEDGITKIMFNRPKKKNAINTEMYHEIMRALKAASKDDSIITVLTGNGDYYSSGNDLTNFTDIPPGGVEEKAKNNAVLLREFVGCFIDFPKPLIAVVNGPAVGISVTLLGLFDAVYASDRATFHTPFSHLGQSPEGCSSYTFPKIMSPAKATEMLIFGKKLTAGEACAQGLVTEVFPDSTFQKEVWTRLKAFAKLPPNALRISKEVIRKREREKLHAVNAEECNVLQGRWLSDECTNAVVNFLSRKSKL” it was “not soluble”; in that of “MNRTLPLLPALALGVLLGLPASGQATCYRVTSVGSETTTSNTQIRPGEGTAGSWTGACDTCNGSLGLPSVVNVSDESFQPYPTLIASAVAPLTQYGATGGYDPERVFFRCSAGDAVYEMFSTNGDDLYSGYYTGADTVGNDIGLQDAYRTAWPNVLLRLTNVETGETITPIWKERQLSGLDIDSRGFQLVKAKNLAAVRAELYSAPLEAIRYYSPTILSQPYSYTQPAAYIAIKGPGLTAPTVGQAHVGGNWGGWYSNWPGAIGLYRYVTLKRYPTCAVMTVTPHVQFPSITLAEIDSGGVREAPFELTFKCQSGMTNGTGAGATALGIRVSSGALAASPALGLVNASGGLSYLLSDRYGEPGIARGVGIRIYRDGTPMTLLANENSAGGSNAEATGWYPAIGGATQANGGSGGIDLYRETFRARLEKLALGSQPGVTAGRVEATAQVVIRVQ”, “not soluble”; in that of “MNRVEPPYDVKEALVFTQKMAQLSKALWKSIEKDWQQWLKPYDLNINEHHILWIAYQLNGASISEIAKFGVMHVSTAFNFSKKLEERGYLRFSKRLNDKRNTYVQLTEEGTEVFWSLLEEFDPTRNAVFKGSQPLYHLFGKFPEVAEMMCMIRHIYGDDFMEIFETSLTNIDNDFESVNGKLKKKAKDSAADEPAEELEPVNS”, “soluble”.
“MNRWEKELDKYAELAVKVGVNIQPGQTLFVNAPLEAAPLVRKIAKTAYETGAKHVYVEWNDEALTYIKFHHAPEEAFSEYPMWRARAMEELAEQGAAFLSIYAPNPDLLKDVDPKRIATANKTAAQALANYRSAIMADRNCWSLISVPTPAWAQKVFGDLRDEEAIDKLWEAIFRITRIDHDDPIAAWRKHNDRLARIVDYLNNKQYKQLVYEAPGTNLTVELVDGHVWHGGAATSQSGVRFNPNIPTEEVFTMPHKDGVNGTVRNTKPLNYNGNVIDGFTLTFKDGQVVDFSAEQGYETLKHLLDTDDGARRLGEVALVPHQSPVSLSNLIFYNTLFDENAACHLALGKAYPTNIENGASLSKEELDRRGVNDSLVHVDFMIGSADLNIDGVTKDGKREPIFRSGNWAFELS”: the “soluble on expression in E. coli” value is “not soluble”.
Turning to “MNRYITRGIANNLPNILQHQLWQLVSEREQEQTKDNTLVDYFHIFQFNTHRNQLYIKHKQERPAYVKTQKANINQPININKVYIIREDDVDLSYYIMLLPNEYLEHHHHHH”, the “soluble on expression in E. coli” value is given as “soluble”.
Turning to “MNRYPGIPRNEWSAGWKRTACIVKAEDGSWGFGFTLHSGVTERIINDHLSKILIGRNCMSTEMLWDVMQQSTISYGTSGLSSFAISAVDNAIWDLKGKILDRPVYELIGGPQKDKIFCYASNTSFEYGTKNSIEWFLELGFKAVKLFLREGPESNLEGINRAEQLVASTREQVGKDVEIAVDAWMSLNNEYAVRLAEVLKPYRIKWLEDYLNPENLDGYQNLRNRIPWQTLATGEHWYSLYPFALAASKGIVDIFQPDLNWVGGITAGIKICHLAEAHGLSVIPHASTNYPYGQHLAFSMPSVPWAERSEGVSPPGVPLEEMVLLPGTPVIKDGYIIPSDAPGFGLEITEDWLRDRAV”, the “soluble on expression in E. coli” value is “soluble”.
For “MNSENSKWQAIQESTFALARKCEEFDSDGITVYLFSKTFQRYDYVNSAKVKQLFAENSPSETTNLVGVLQDAINSYFQRKSLGKTKPAGEVILVITDGAPVDSQAVCEVIIKATHLVESANELRISIIQVGSDSHATKFLKALDDHLQSVGAKFDICDTITLDELEITNLSDVLMKAITDLEHHHHHH”, the “soluble on expression in E. coli” value is “not soluble”.
In the case of “MNSGNMQDTLDLEKKLRGYLFGTACADALGRPVEHLTLKQIKEKYGEKGILELPPNSSWTDDTQLMLVLARGLLHGAEFELPELMKHIAGELVLWLKEPDLGAGATTKGAALSLKDGIHWSESGLNSKTCGSLMRVGILGFIFSNDPDKLIEAASLSGRITHNHPTADAASVAGAYAVKLALDGIAPEDMFLPLLRVTEGISDEFTEALKHSYELAHSNLSDEEALQKLGQGWYADETFALAYFCILRYPDNYKKAVQTGVNITGDSDSVGSVAGGILGARLGIEAVPVSWVESLKEKEIIEEMVEPLIEKYLEVSENKHQVSEDGFGAMAGDPLEHHHHHH”, the “soluble on expression in E. coli” value is reported as “soluble”.
Consider “MNSIHGHYHIQLSNYSAGENLQSATLTEGVIGAHRVKVETALSHSNLQKKLSATIKHNQSGRSMLDRKLTSDGKANQRSSFTFSMIMYRMIHFVLSTRVPAVRESVANYGGNINFKFAQTKGAFLHKIIKHSDTASGVCEALCAHWIRSHAQGQSLFDQLYVGGRKGKFQIDTLYSIKQLQIDGCKADVDQDEVTLDWFKKNGISERMIERHCLLRPVDVTGTTESEGLDQLLNAILDTHGIGYGYKKIHLSGQMSAHAIAAYVNEKSGVTFFDPNFGEFHFSDKEKFRKWFTNSFWGNSMYHYPLGVGQRFRVLTFDSKEV”, for which the “soluble on expression in E. coli” value is given as “not soluble”.
On to “MNSMEHLLKQAIKLRKEKKYAQSKEILIGLTNFTRDAEVLYQCAWIHDVMGLETEAMPYYEQAIANGLEGESLCGAYIGLGSTYRCIGEYDKAITVLETGLQQFPGNDVMKVFLSLAKFNVNDHESAMKLLLETVVKLEHHHHHH”, for which the “soluble on expression in E. coli” value is on record as “soluble”.
As for “MNTAAGRKEDIRIPPRVAPDLNAPRVLVLNASYEPLQVTSIKRAITLLQYGVAEVLEQSRDVVRSPSTVMSVPSVIRLRRYVRRPRVGAVPFNRRNVLRRDHFTCQYCGSQDDLTMDHVHPRSRGGKHGWDNVVTACRTCNQRKGNLTPEEAGMPLHVPPHAPTFGVYAHGQFAHWQPEWSGYIRGLEHHHHHH”, the “soluble on expression in E. coli” value is recorded as “not soluble”.
Turning to “MNTEIEIIATDKVSNQAAMRSVLVMEQWGNGETYSEERWVERGRQAVRQTMEGMFELGRALIILKEHTEHGRFMEIVKSQFGLGIAETSRLMSATRRFATPQMQKAAPKLMDLGKSKLLELLVEEDVTLVGLAEGEEVNGMTFDDVDRMTVRELRVALRESRENLAAKDEVMKTKTAKIDELAEKLAKKQTVVREPKAEDVGSELAMQLTSLEVGIRSQVSRLKDLFDQLNAHSEAHGISHQAKMVGTLNQIILDCEQLRESYALPTEAPTDNVPEWLGGETGEGDESGND”, the “soluble on expression in E. coli” value is reported as “not soluble”.
“MNTGPYYFVKNLPLHELITPEFISTFIKKGSCYALTYNTHIDEDNTVALLPNGKLILSLDKDTYEETGLQGHPSQFSGRKIMKFIVSIDLMELSLNLDSKKYERISWSFKEKKPLKFDFLLAWHKTGSEESTMMSYFSKYQIQEHQPKVALSTLRDLQCPVLQSSELEGTPEVSCRALELFDWLGAVFSNVDLNEPNNFISTYCCPEPSTVVAKAYLCTITGFILPEKICLLLEHLCHYFDEPKLAPWVTLSVQGFADSPVSWEKNEHGFRKGGEHLYNFVIFNNQDYWLQMAVGANDHCPPLEHHHHHH”: the “soluble on expression in E. coli” value is “not soluble”.
As for “MNTKKFAKVNEQIPGPKAASLLERRQNIVPKGVSNGIPTFVQSANGALVTDVDGNQYIDFAGAIGTINVGHCHPAVKEALHKQVDQYIHTGFNVMMYEPYIELAEKLAALAPGSFDKQVLFLNSGAEAVENAVKIARKYTKRPGIIAFSKGFHGRTLMTMTMTSKVKPYKFGFGPFAPEVYKAPFPYEYRCPEGLTEEQYDDFMIEEFKNFFISEVAPETIAAVVMEPVQGEGGFIVPSKKFAQEVRNICSEHGILFVADEIQTGFSRTGKYFAIDHYDVVPDLITVSKSLGAGVPISGVIGRKEIMNESAPGELGGTYAGSPLGCAAALAVLDVIEKENLNDRAIELGKVVMNRFEEMKNKYNCIGDVRGLGAMCAFELVQDRKTKTPDKTLTANLCTEANKRGLLLLSAGTYGNVIRVLMPLVITDEQLEEGLTIIEESLQICYEKANTARV”, the entry is “not soluble”; as for “MNTMEEKYILSDRGKVYYWIKESNSVFAKNLIFLPGLTANHHLFDFQIQYFSKNHNVLVWDAPAHGKSRPYLDFSYSNLVEELKVILDKQNMKKVVLIGQSAGGFVAQSFIVKYPNMVEGLMMIGTCPYGTDYYSKSDIFWLKQTEWMLKLFPDKLLRNIISKMCGATSEGRRSMLKMLEGYEKKELCHLMYLGFAGFIPEIQDLNIHCPVCLVVGDKDKTGKVRKYNEQWHNKTGYPLHIIKNASHNVNVDKPNELNQIMDIFIKQLNI”, “not soluble”.
